From patent CN113173994A (SHENZHEN INNOVA NANOBODI CO LTD, dated 2021)

How the values were obtained:
血清标本中的AFP抗原 = molecular target: T1, 血清标本中的AFP抗原 (UniProt P02771 19-609); test: double-antibody sandwich chemiluminescence assay, detection antibody
T1 construct: also called 质控血清AFP; 标准血清中的AFP
T1 sequence (looked up): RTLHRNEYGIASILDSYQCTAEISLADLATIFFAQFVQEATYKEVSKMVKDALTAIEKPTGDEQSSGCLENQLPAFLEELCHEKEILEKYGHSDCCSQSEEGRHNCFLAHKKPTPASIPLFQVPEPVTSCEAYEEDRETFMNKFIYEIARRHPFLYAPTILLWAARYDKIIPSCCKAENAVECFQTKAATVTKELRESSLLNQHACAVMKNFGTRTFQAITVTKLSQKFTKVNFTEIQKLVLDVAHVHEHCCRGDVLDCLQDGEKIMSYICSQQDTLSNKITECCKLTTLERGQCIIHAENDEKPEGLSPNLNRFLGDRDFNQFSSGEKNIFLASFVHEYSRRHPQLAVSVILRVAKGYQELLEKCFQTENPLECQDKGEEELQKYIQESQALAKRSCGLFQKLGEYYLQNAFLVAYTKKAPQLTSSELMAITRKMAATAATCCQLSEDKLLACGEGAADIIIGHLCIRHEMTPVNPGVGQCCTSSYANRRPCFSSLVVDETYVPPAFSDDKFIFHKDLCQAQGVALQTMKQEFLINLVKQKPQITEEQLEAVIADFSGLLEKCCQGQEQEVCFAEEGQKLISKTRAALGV

[1] = molecular target: T2, 重组AFP抗原(爱必信生物，货号Abt-P-208，GenbankID:174) (UniProt P02771 19-609, limits assumed); test: ELISA additivity test on coated AFP
T2 construct: Bought recombinant antigen; also called 甲胎蛋白; α-fetoprotein
T2 sequence (looked up): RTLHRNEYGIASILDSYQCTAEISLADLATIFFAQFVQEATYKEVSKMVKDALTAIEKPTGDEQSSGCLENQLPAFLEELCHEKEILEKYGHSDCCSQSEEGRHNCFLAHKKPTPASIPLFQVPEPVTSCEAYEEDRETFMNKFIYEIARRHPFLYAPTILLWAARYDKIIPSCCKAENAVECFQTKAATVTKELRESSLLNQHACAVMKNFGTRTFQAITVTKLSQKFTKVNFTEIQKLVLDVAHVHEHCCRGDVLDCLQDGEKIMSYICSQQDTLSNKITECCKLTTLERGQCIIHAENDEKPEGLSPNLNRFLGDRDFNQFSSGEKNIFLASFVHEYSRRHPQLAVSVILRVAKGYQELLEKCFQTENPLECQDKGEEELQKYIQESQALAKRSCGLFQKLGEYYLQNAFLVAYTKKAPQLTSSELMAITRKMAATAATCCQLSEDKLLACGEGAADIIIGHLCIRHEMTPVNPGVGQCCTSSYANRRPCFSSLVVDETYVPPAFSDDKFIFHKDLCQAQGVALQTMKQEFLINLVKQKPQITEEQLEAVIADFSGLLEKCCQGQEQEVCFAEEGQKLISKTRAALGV

B1: 带有化学发光区序列的纳米抗体1C5-HAP (other)
chain: QVQLQESGGGLVQAGGSLRLSCKASERTFSSYSMAWYRQAPGKKREFVASISWDDERTYYTDSVKGRFTISRPNAKNTVYLQMNSLKPEDTAVYYCAVGGLSDGLGPSYDYWGQGTQVTVSSGGGGSGGGGSGGGGSIIPVEEENPDFWNREAAEALGAAKKLQPAQTAAKNLIIFLGDGMGVSTVTAARILKGQKKDKLGPEIPLAMDRFPYVALSKTYNVDKHVPDSGATATAYLCGVKGNFQTIGLSAAARFNQCNTTRGNEVISVMNRAKKAGKSVGVVTTTRVQHASPAGTYAHTVNRNWYSDADVPASARQEGCQDIATQLISNMDIDVILGGGRKYMFRMGTPDPEYPDDYSQGGTRLDGKNLVQEWLAKRQGARYVWNRTELMQASLDPSVTHLMGLFEPGDMKYEIHRDSTLDPSLMEMTEAALRLLSRNPRGFFLFVEGGRIDHGHHESRAYRALTETIMFDDAIERAGQLTSEEDTLSLVTADHSHVFSFGGYPLRGSSIFGLAPGKARDRKAYTVLLYGNGPGYVLKDGARPDVTESESGSPEYRQQSAVPLDEETHAGEDVAVFARGPQAHLVHGVQEQTFIAHVMAFAACLEPYTACDLAPPAGTTD
notes: Expressed in 293 cells
binding result (血清标本中的AFP抗原): binds

B2: 纳米抗体1C5 (VHH)
VHH: QVQLQESGGGLVQAGGSLRLSCKASERTFSSYSMAWYRQAPGKKREFVASISWDDERTYYTDSVKGRFTISRPNAKNTVYLQMNSLKPEDTAVYYCAVGGLSDGLGPSYDYWGQGTQVTVSS
binding result [1]: binds
